Measured values reported in PMC6134095, “Structural Analysis of the Interaction between the Bacterial Cell Division Proteins FtsQ and FtsB” (mBio, 2018).

B1: FtsB (22–103), periplasmic domain of E. coli FtsB (domain or fragment, UniProt P0A6S5 22-103, looked up)
chain: GKNGIHDYTRVNDDVAAQQATNAKLKARNDQLFAEIDDLNGGQEALEERARNELSMTRPGETFYRLVPDASKRAQSAGQNNR
notes: No tag cleavage is described; source: E. coli C41(DE3), purified (HisTrap, Sephacryl S300); not shown: His6, N-terminal, kept
B2: FtsL (58–121), periplasmic domain of E. coli FtsL (domain or fragment, UniProt P0AEN4 58-121, looked up)
chain: HHTRLLTAQREQLVLERDALDIEWRNLILEENALGDHSRVERIATEKLQMQHVDPSQENIVVQK
notes: FtsL, E. coli, periplasmic domain, residues 58-121; Cloned into pET15b like FtsB; source: E. coli C41(DE3), purified (HisTrap, Sephacryl S300)

Assays:
[1] = molecular target: the molecule itself; test: crystal structure; FtsQ (58–276) with FtsB (22–103), co-purified complex at 6 mg/ml; P4(1)2(1)2, 2.6 Å, molecular replacement; 0.15 M potassium thiocyanate, 20% PEG 550 MME, 0.1 M sodium cacodylate pH 6.5, 19°C
[2] = molecular target: T1, FtsQ (58–276), periplasmic domain of E. coli FtsQ (Escherichia coli strain K-12, UniProt P06136 58-276); test: SPR; FtsQ (58–276) immobilised on a CM5 chip by amide coupling (~1,000 RU); Biacore T200, 20°C; 10 mM HEPES pH 7.4, 150 mM NaCl, 0.4% glycerol; analytes injected 120 s, 600 s dissociation, 1:2 dilution series, triplicate; settings: both partners purified
T1 construct: FtsQ, Escherichia coli K-12, periplasmic domain (alpha and beta domains), residues 58-276; construct printed as M-58-276-GSH6; No tag cleavage is described; also called FtsQ (residues 58 to 276); Q: M-58-276-GSH6; source: E. coli C41(DE3), purified (HisTrap, Sephacryl S300); not shown: His6, C-terminal, kept
T1 sequence (P06136 58-276): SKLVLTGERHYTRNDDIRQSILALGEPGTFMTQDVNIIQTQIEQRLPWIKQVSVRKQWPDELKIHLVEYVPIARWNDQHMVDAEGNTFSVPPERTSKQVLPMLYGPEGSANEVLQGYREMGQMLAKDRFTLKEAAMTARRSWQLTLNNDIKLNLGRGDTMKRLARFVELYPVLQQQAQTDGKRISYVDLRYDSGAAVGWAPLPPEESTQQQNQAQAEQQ

[3] = molecular target: T2, FtsQ (58–276) and FtsB (22–103) added together (Escherichia coli strain K-12 | E. coli, UniProt P06136 58-276; P0A6S5 22-103); test: SPR; FtsL (58–121) immobilised on a CM5 chip by amide coupling (~3,300 RU); Biacore T200, 20°C; 10 mM HEPES pH 7.4, 150 mM NaCl, 0.4% glycerol; FtsQ (58–276) and FtsB (22–103) from 40 µM each, alone or in combination; settings: both partners purified
T2 construct: FtsQ, Escherichia coli K-12, periplasmic domain, residues 58-276; as m1; as m2; The two proteins were injected in combination (40 µM each at the start of the dilution series) over immobilised FtsL; also called FtsB and FtsQ; FtsQB complex; source: E. coli C41(DE3), each purified separately (HisTrap, Sephacryl S300), injected in combination
T2 sequence (P06136 58-276, chain 1 of 2, one chain of several): as the sequence (P06136 58-276) above

Binder | binding result [1] | Kd [2] [µM] | Kd [3] [µM]
B1 | binds | 0.8 | 
B2 |  |  | 11
